For assay [1], the target named is crystallized mutant mouse IL-17RB-SEFIR (RB-SEFIR-M; K364A, K367A, K368A and K369A quadruple mutant, residues 325-486) (mouse) (UniProt Q9JIP3). Briefly: SPR; printed as Ka. For orientation: In SPR one partner is held on a chip, and binding of the other changes the refractive index at the surface.
Assay [2] concerns the target wild type mouse IL-17RB-SEFIR (WT-RB-SEFIR) (mouse) (UniProt Q9JIP3). Kind of assay: SPR; printed as Ka.

Sequence of recombinant mouse Act1 SEFIR domain (mAct1-SEFIR, residues 391 to 537) (Q8N7N6 391-537): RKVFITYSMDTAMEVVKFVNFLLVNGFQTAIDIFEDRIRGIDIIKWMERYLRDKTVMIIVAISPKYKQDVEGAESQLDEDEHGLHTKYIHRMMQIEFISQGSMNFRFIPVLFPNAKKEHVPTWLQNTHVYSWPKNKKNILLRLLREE
Sequence of crystallized mutant mouse IL-17RB-SEFIR (RB-SEFIR-M; K364A, K367A, K368A and K369A quadruple mutant, residues 325-486) (mouse) (Q9JIP3 325-486 K364A/K367A/K368A/K369A): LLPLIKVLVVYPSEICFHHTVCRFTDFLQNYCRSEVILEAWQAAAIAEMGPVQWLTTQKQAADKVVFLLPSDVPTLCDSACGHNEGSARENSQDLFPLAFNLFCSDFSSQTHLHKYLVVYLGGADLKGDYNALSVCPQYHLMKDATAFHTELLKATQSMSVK
Sequence of wild type mouse IL-17RB-SEFIR (WT-RB-SEFIR) (mouse) (Q9JIP3 314-486): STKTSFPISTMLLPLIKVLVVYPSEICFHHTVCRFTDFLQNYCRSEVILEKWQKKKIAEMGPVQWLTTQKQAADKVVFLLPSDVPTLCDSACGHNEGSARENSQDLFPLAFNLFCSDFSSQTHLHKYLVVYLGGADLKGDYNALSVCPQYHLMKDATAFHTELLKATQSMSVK

As to “recombinant mouse Act1 SEFIR domain (mAct1-SEFIR, residues 391 to 537) (from UniProt Q8N7N6 391-537)”, the dissociation constant (Kd) in assay [1] was determined as 1500 nM; in assay [2] it was 1400 nM.

One may read the Kd as the constant that tells how readily two partners part at equilibrium. Low readings indicate higher affinity, high ones lower affinity.

(Values after patent publication US20150158912A1.)
